Assay results taken from patent publication US20250154198A1, “PEPTIDE INHIBITORS OF INTERLEUKIN-23 RECEPTOR” (Zealand Pharma A/S, priority 2021, published 2025).
*1 amine or outer side, *2 acyl side, *3 side chain or, on linkers, in order; H or OH if unused. Bridges are numbered along the chain shown (N, C = ends). Primed or numbered codes have the meaning given here. Where no end group is shown, it is not given here. [ ]: non-standard residue; d: D form. 4‑Aminomethyl‑phenylacetyl = 4-aminomethyl-phenylacetyl unit, its amine closes the lactam, O=C(Cc1ccc(CN[*:1])cc1)[*:2]; 1,3‑dibromopropan‑2‑one(3) = linker giving 1,3-dithio-propan-2-one bridge -SCH2C(=O)CH2S- between Cys; 4‑Aminomethyl‑phenylacetyl″ = N-terminal cap residue, O=C(Cc1ccc(CN[*:1])cc1)[*:2]; Pipz(1-CH2CO,4-CH2CH2NH) = O=C(CN1CCN(CCN[*:1])CC1)[*:2]; Trp(6-F) = N[C@@H](Cc1c[nH]c2cc(F)ccc12)C(=O)O; 2Nal = N[C@@H](Cc1ccc2ccccc2c1)C(=O)O; AEF = NCCOc1ccc(C[C@H](N)C(=O)O)cc1; 3Pal = N[C@@H](Cc1cccnc1)C(=O)O; αMeL = CC(C)C[C@](C)(N)C(=O)O; CH2COCH2 = O=C(C[*:1])C[*:2]; dDab = NCC[C@@H](N)C(=O)O; Dab = NCC[C@H](N)C(=O)O; Ahx = NCCCCCC(=O)O; βAla = NCCC(=O)O

Molecular target: T1, human IL-23R endogenously expressed on DB cells (CRL-2289) (human, UniProt Q5VWK5 24-629)
T1 sequence (looked up): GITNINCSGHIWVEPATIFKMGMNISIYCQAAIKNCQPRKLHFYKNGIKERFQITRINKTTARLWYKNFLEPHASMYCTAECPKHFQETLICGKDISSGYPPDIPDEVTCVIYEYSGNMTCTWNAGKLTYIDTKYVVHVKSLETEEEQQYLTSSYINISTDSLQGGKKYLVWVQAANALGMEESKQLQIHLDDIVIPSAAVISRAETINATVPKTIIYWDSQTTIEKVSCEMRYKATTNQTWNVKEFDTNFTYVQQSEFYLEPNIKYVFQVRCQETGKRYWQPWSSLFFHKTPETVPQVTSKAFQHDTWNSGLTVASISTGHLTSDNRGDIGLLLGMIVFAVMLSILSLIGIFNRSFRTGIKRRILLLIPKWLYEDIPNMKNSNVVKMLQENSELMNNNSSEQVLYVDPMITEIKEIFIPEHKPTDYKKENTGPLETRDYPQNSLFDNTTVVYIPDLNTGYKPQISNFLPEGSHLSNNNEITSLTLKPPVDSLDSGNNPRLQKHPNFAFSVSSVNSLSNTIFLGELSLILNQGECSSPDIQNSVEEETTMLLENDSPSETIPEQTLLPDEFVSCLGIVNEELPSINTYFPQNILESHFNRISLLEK
Assay: cell-based or functional assay

B1: Compound 84 (peptide)
peptide: Ac-KSCWQC[AEF][2Nal][αMeL]E[dR]-NH2
modifications: lactam 1-10; linker 3-6 via CH2COCH2
SMILES: CC(=O)N[C@H]1CCCCNC(=O)CC[C@@H](C(=O)N[C@H](CCCNC(=N)N)C(N)=O)NC(=O)[C@](C)(CC(C)C)NC(=O)[C@H](Cc2ccc3ccccc3c2)NC(=O)[C@H](Cc2ccc(OCCN)cc2)NC(=O)[C@@H]2CSCC(=O)CSC[C@H](NC(=O)[C@H](CO)NC1=O)C(=O)N[C@@H](Cc1c[nH]c3ccccc13)C(=O)N[C@@H](CCC(N)=O)C(=O)N2
  IC50 (pSTAT3): 12.5 nM

B2: Compound 85 (peptide)
peptide: Ac-KTCWQC[AEF][2Nal][αMeL]E[dR]-NH2
modifications: lactam 1-10; linker 3-6 via CH2COCH2
SMILES: CC(=O)N[C@H]1CCCCNC(=O)CC[C@@H](C(=O)N[C@H](CCCNC(=N)N)C(N)=O)NC(=O)[C@](C)(CC(C)C)NC(=O)[C@H](Cc2ccc3ccccc3c2)NC(=O)[C@H](Cc2ccc(OCCN)cc2)NC(=O)[C@@H]2CSCC(=O)CSC[C@H](NC(=O)[C@H]([C@@H](C)O)NC1=O)C(=O)N[C@@H](Cc1c[nH]c3ccccc13)C(=O)N[C@@H](CCC(N)=O)C(=O)N2
  IC50 (pSTAT3): 8.54 nM

B3: Compound 87 (peptide)
peptide: [Ahx]SCWQC[AEF][2Nal][αMeL]E[dR]-NH2
modifications: lactam (positions not given here); linker 3-6 via CH2COCH2; not fully specified (bridges); printed as [6-Aminohexanoyl](1c)*SC(2a)WQC(2a)[Y(2-aminoethoxy)][2-Nal][2-Me-Leu]E(1c)[{d}R]-[NH2]
  IC50 (pSTAT3): 8.89 nM

B4: Compound 90 (peptide)
peptide: [Pipz(1-CH2CO,4-CH2CH2NH)]SCWQC[AEF][2Nal][αMeL]E[dR]-NH2
modifications: lactam (positions not given here); linker 3-6 via CH2COCH2; not fully specified (bridges); printed as [(4-(2-Aminoethyl)-piperazine-1-yl)-acetyl](1c)*SC(2a)WQC(2a)[Y(2-aminoethoxy)][2-Nal][2-Me-Leu]E(1c)[{d}R]-[NH2]
  IC50 (pSTAT3): 15.8 nM

## [4‑Aminomethyl‑phenylacetyl]SCWQC[AEF][2Nal][αMeL]E[dR]-OH (lactam N-10; linker 3-6 via 1,3‑dibromopropan‑2‑one(3)) [Compound 108]
  IC50 (pSTAT3): 10.6 nM

## [4‑Aminomethyl‑phenylacetyl]SCWQC[AEF][2Nal][αMeL]E[dDab]((2-(trimethyl-2-aminoethoxy)ethoxy)propyl)-NH2 (lactam N-10; linker 3-6 via 1,3‑dibromopropan‑2‑one(3)) [Compound 109]
  IC50 (pSTAT3): 21.5 nM

## [4‑Aminomethyl‑phenylacetyl]SCWQC[AEF][2Nal][αMeL]E[dQ]-NH2 (lactam N-10; linker 3-6 via 1,3‑dibromopropan‑2‑one(3)) [Compound 115]
  IC50 (pSTAT3): 18.9 nM

## [4‑Aminomethyl‑phenylacetyl″]SCWQC[AEF][2Nal][αMeL]E[dH]-NH2 (lactam N-10; linker 3-6 via 1,3‑dibromopropan‑2‑one(3)) [Compound 117]
  IC50 (pSTAT3): 11.3 nM

## [4‑Aminomethyl‑phenylacetyl]SCWQC[AEF][2Nal][αMeL]E[βAla]-NH2 (lactam N-10; linker 3-6 via 1,3‑dibromopropan‑2‑one(3)) [Compound 119]
  IC50 (pSTAT3): 16.7 nM

## [4‑Aminomethyl‑phenylacetyl]SCWQC[AEF][Trp(6-F)][αMeL]E[Dab][3Pal]-NH2 (lactam N-10; linker 3-6 via 1,3‑dibromopropan‑2‑one(3)) [Compound 121]
  IC50 (pSTAT3): 0.367 nM
